From paper PMC9428257, “Developing high-affinity decoy receptors to treat multiple myeloma and diffuse large B cell lymphoma” (The Journal of Experimental Medicine, 2022)

Biological target: T1, human BAFF (B cell activating factor) (human, UniProt Q9Y275 134-285)
T1 construct: also called hBAFF
Test: flow cytometry on cells; yeast-displayed sBCMA (wild type or mutant clone) incubated with increasing concentrations of soluble APRIL or BAFF; same reagents and protocols as the library sorts (PBS with 0.1% BSA, room temperature); KD from a one site-specific binding fit in GraphPad Prism
Conditions: one partner purified

Kd: 9 pM
B1: yeast-displayed mutant sBCMA V3 (S16G, H19Y, T36A, N53D) (domain or fragment, human, UniProt Q02223 1-54, looked up)
chain: MLQMAGQCSQNEYFDGLLYACIPCQLRCSSNTPPLACQRYCNASVTNSVKGTDA
notes: B cell maturation antigen (BCMA), human, extracellular domain, amino acids Met1-Ala54, with the four V3 mutations
